Assay results from patent US20120093811A1 (published 2012).
Where a chain is given by its changes, count along the chain named.

T1: VEGF-D (recombinant human; source not given) (human, UniProt O43915 89-205, limits assumed)
T1 construct: also used here as target of IC50 values averaged over Source 1 and Source 2; also called vascular endothelial growth factor-D
T1 sequence: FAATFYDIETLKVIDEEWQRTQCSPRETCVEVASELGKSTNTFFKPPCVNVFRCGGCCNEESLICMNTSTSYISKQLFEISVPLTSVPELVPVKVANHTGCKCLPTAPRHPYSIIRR

B1: humanized IgG antibody derived from clone DI26 (antibody, V domains shown)
VH: QVQLVQSGAKVKQPGASVKASCKASGYTFTGYNMYWVRQAPGQGLEWMGYIDPYSGDTTYNQKFKGRVTMTTDTSTSTAYMELRSLRSDDTAVYYCARTSYYGGMDYWGRGTLVTVAS
VL: DIVMTQTPLSSPVTLGQPASISCRSSQSLVHSNGNTYLHWLQQRPGQPPRLLIYKVSNRFSGVPDRFSGSGAGTDFTLKISRVEAEDVGVYYCSQSTHVPRTFGQGTKLEIKR
notes: IgG
B2: Ig-1A, humanized IgG reformatted from scFv 1A (antibody, V domains shown)
VH: B1 VH with K10E, A20V, S55N
VL: B1 VL
notes: IgG made in mammalian cells; also called humanized Ig-1A
B3: Source 1 VEGF-D, mature dimeric recombinant human VEGF-D (CSIRO) (ligand)
chain: T1 sequence
B4: humanized scFv 1A (scFv)
scFv: QVQLVQSGAEVKQPGASVKVSCKASGYTFTGYNMYWVRQAPGQGLEWMGYIDPYNGDTTYNQKFKGRVTMTTDTSTSTAYMELRSLRSDDTAVYYCARTSYYGGMDYWGRGTLVTVASGGGASGGGGSGGGGSDIVMTQTPLSSPVTLGQPASISCRSSQSLVHSNGNTYLHWLQQRPGQPPRLLIYKVSNRFSGVPDRFSGSGAGTDFTLKISRVEAEDVGVYYCSQSTHVPRTFGQGTKLEIKR
notes: also called 1A scFv; clone 1A
B5: Source 2 VEGF-D, purified recombinant human VEGF-D monomer (R&D Systems, Catalog Number 622-VD/CF) (ligand)
chain: FYDIETLKVIDEEWQRTQCSPRETCVEVASELGKSTNTFFKPPCVNVFRCGGCCNEESLICMNTSTSYISKQLFEISVPLTSVPELVPVKVANHTGCKCLPTAPRHPYS

How the values were obtained:
[1] = biological target: B3; assay: cell-based or functional assay
[2] = biological target: B5; assay: cell-based or functional assay
[3] = biological target: B5; assay: SPR, IgG captured by anti-human IgG (Fc), Source 2 VEGF-D monomer as analyte
[4] = biological target: B5; assay: SPR, KD against that of Ig-1A
[5] = biological target: B3; assay: SPR Protocol B: VEGF-D dimer amine-coupled, IgG as analyte
Procedure: (§1) Protocol B: In the second assay format, Protocol B, the orientation of the IgGs and the VEGF-D antigen was reversed relative to Protocol A. The Source 1 VEGF-D dimer was immobilized directly on the chip surface by amine coupling and the murine anti-VEGF-D monoclonal antibody, Ig-1A or IgG variants flowed over this surface as analytes at concentrations of 4 nM, 1.33 nM, and 0.44 nM. This protocol allowed avidity effects to be controlled by reducing the density of dimeric VEGF-D immobilized on the chip and in effect reduce the bivalent binding properties of the system being analyzed.
(§2) All four flow cells on a CM5 chip were activated for 7 min at 25° C. using a mixture of NHS.EDC. Flow cell one was used as an unmodified (activated and blocked) reference against flow cells 2-4. Source 1 VEGF-D dimer was diluted to 1-3 μg/ml into 10 mM sodium acetate, pH 4, and injected over three surfaces for different lengths of time to achieve low ligand densities of 10, 15 and 20 RU to minimize avidity effects of the IgG. All surfaces were blocked for 7 min with ethanolamine (1M, pH 8.2) and pre-conditioned using five 10 s injections of 100 mM H₃PO₄; 1M NaCl. Immobilization steps were carried out at a flow rate of 30 μl/min using HBS-N running buffer.
(§3) All IgG binding experiments were performed at 25° C. using HBS-EP+ running buffer. Analytes (murine reference anti-VEGF-D monoclonal antibody and humanized variants) were injected for 200 s at a flow rate of 70 μl/min and dissociation monitored for 250 s. The antigen surfaces were regenerated with a 10 s pulse of 100 mM H₃PO₄; 1M NaCl. Analyte concentrations used for murine and humanized variants were 4 nM, 1.33 nM, and 0.44 nM. Data was processed using the reference surface and double referencing from blank injections. Binding constants for the IgG/antigen interactions were determined from the three antigen surfaces globally fitted to a 1:1 interaction model. Refractive index parameter was constant (RI=0).

[6] = biological target: B3; assay: SPR Protocol B, KD against that of Ig-1A
Procedure: as §1, §2, §3

[7] = biological target: B3; assay: SPR Protocol A: IgG captured by anti-human Fc, VEGF-D dimer as analyte
Procedure: (§4) Protocol A: The first assay format, Protocol A, used an assay system where IgGs were captured on a biosensor chip surface using an anti-human IgG (Fc) antibody and the Source 1 VEGF-D dimer run over the chip as the analyte in solution. This ensured that all IgG molecules were presented to the antigen in an active orientation.
(§5) The SPR protocol was slightly modified to compensate for the dimeric nature of the VEGF-D. Ig-1A or IgG variants were analyzed using an anti-human capture kit as described for Anti-human IgG (Fc) capture above, except that 1000 RU of the IgG or IgG variant was captured on the anti-human chip surface. […] The kinetics generated using this approach are accurate within the experimental parameters set. This standard assay protocol is best suited to studying 1:1 interactions and thus, may not be ideal for analyzing binding between the IgG variants and the VEGF-D dimer. In light of this, Protocol B was also used.

[8] = biological target: B3; assay: SPR Protocol A, KD against that of Ig-1A
Procedure: as §4, §5

[9] = biological target: B3; assay: SPR; row labelled Protocol A (IgG captured by anti-human Fc, VEGF-D dimer as analyte); Protocol A line of Table 6
Procedure: as §4, §5

[10] = biological target: B5; assay: SPR, IgG captured by anti-human IgG (Fc), Source 2 VEGF-D as analyte
[11] = biological target: B3; assay: SPR, labelled Protocol A in this table; Protocol B by paragraph 399 and Table 7A, though printed as Protocol A
[12] = biological target: B3; assay: SPR, labelled Protocol B in this table
[13] = biological target: VEGFR-2-EpoR chimeric receptor on VEGFR-2-Ba/F3 cells (mouse, UniProt P35918 20-762); assay: cell-based or functional assay
[14] = biological target: T1, VEGF-D (recombinant human; source not …); assay: SPR (BIAcore), purified 1A scFv on VEGF-D, repeat 1
Procedure: (§6) Kinetic values were obtained for the three humanized scFv variants, 1A, 3A and 4A (Table 2). All isolated scFv samples were purified as monomer peaks by anti-FLAG affinity and gel filtration chromatography. BIAcore™ analysis was performed by directly immobilizing VEGF-D on a CM5 surface using amine coupling, with the scFv run as the analyte. Analysis of binding was carried out using the BIAevaluation kinetic analysis software. All repeats were separate protein expressions and were performed at 25° C.
(§7) The binding of purified 1A scFv to VEGF-D was analyzed using a BIAcore™ biosensor (Table 3).

[15] = biological target: T1, VEGF-D (recombinant human; source not …); assay: SPR (BIAcore), purified 1A scFv on VEGF-D, repeat 3
Procedure: as §6, §7

[16] = biological target: T1, VEGF-D (recombinant human; source not …); assay: SPR (BIAcore), purified 1A scFv on VEGF-D, repeat 2
Procedure: as §6, §7

[17] = biological target: T1, VEGF-D (recombinant human; source not …); assay: SPR (BIAcore), VEGF-D amine-coupled on CM5, purified scFv as analyte, 25 C
Procedure: as §6

[18] = biological target: T1, VEGF-D (recombinant human; source not …); assay: SPR (BIAcore), VEGF-D amine-coupled on CM5, purified scFv as analyte
Procedure: scFv variants were fully characterized using a BIAcore™ biosensor. All isolated scFv samples were purified as monomer peaks by anti-FLAG affinity chromatography followed by gel filtration chromatography. BIAcore™ analysis was performed by directly immobilizing VEGF-D on a CM5 surface using amine coupling, with the scFv run as the analyte. Analysis of binding was carried out using the BIAevaluation kinetic analysis software. All repeats were separate protein expressions and were performed at 25° C.
Clones F61, A63, AR7, AW61, CJ37, DI126 and DA18 were produced in large-scale expression cultures and purified by anti-FLAG affinity chromatography and gel filtration. The binding kinetics against VEGF-D were then measured using a BIAcore™ biosensor as described previously.

[19] = biological target: T1, VEGF-D (recombinant human; source not …); assay: SPR (BIAcore), purified 1A scFv on VEGF-D, average of three repeats
Procedure: as §6, §7

Chain of VEGFR-2-EpoR chimeric receptor on VEGFR-2-Ba/F3 cells (P35918 20-762, change not shown): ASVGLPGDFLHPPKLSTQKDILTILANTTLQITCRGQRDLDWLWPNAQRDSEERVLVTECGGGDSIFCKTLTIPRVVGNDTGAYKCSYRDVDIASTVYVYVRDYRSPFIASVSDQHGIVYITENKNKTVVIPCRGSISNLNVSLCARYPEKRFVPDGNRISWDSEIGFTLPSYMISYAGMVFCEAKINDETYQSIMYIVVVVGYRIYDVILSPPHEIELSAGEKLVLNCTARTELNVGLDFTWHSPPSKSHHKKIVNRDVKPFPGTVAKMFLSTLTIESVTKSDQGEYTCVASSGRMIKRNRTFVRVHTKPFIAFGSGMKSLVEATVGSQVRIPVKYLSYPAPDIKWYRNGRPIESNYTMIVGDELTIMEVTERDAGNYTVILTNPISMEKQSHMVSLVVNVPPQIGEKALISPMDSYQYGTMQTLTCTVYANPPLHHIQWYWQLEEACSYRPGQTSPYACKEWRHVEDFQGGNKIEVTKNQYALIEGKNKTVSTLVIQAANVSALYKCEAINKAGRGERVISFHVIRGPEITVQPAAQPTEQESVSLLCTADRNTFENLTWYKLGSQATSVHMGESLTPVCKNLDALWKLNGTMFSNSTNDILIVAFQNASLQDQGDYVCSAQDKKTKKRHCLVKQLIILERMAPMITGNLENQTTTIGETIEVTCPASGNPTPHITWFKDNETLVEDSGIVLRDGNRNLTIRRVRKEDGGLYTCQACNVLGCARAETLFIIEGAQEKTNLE

Binder: B1
rank in the VEGFR-3-Ba/F3 bioassay [1]: 2 rank
rank in the VEGFR-3-Ba/F3 bioassay [2]: 2 rank
Kd [3]: 4.1 nM
koff [3]: 0.0041 s⁻¹
kon [3]: 1e+06 M⁻¹ s⁻¹
Fold-improvement with respect to Ig-1A [4]: 2.2 fold
Kd [5]: 0.88 nM
koff [5]: 0.0012 s⁻¹
kon [5]: 1.3e+06 M⁻¹ s⁻¹
Fold-improvement with respect to Ig-1A [6]: 2 fold
Kd [7]: 0.699 nM
koff [7]: 0.00039 s⁻¹
kon [7]: 560000 M⁻¹ s⁻¹
Fold-improvement with respect to Ig-1A [8]: 1 fold

Binder: B2
koff [9]: 0.00059 s⁻¹
kon [9]: 680000 M⁻¹ s⁻¹
Kd [3]: 9.2 nM
koff [3]: 0.00678 s⁻¹
kon [3]: 730000 M⁻¹ s⁻¹
Kd [10]: 16.1 nM
koff [10]: 0.00901 s⁻¹
kon [10]: 494000 M⁻¹ s⁻¹
Kd [5]: 1.8 nM
koff [5]: 0.0013 s⁻¹
kon [5]: 720000 M⁻¹ s⁻¹
Kd [7]: 0.696 nM
koff [7]: 0.00049 s⁻¹
kon [7]: 710000 M⁻¹ s⁻¹
Kd [11]: 0.7 nM
Kd [12]: 0.7 nM

Binder: B3
concentration within EC50-EC80 for proliferation of VEGFR-2-Ba/F3 cells [13]: 0.005 µg/mL

Binder: B4
Kd [14]: 14.2 nM
koff [14]: 0.0109 s⁻¹
kon [14]: 769000 M⁻¹ s⁻¹
Kd [15]: 14.8 nM
koff [15]: 0.0104 s⁻¹
kon [15]: 707000 M⁻¹ s⁻¹
Kd [16]: 10.4 nM
koff [16]: 0.011 s⁻¹
kon [16]: 1.06e+06 M⁻¹ s⁻¹
Kd [17]: 13.1 nM
koff [17]: 0.0109 s⁻¹
kon [17]: 769000 M⁻¹ s⁻¹
Kd [18]: 13.1 nM
koff [18]: 0.0108 s⁻¹
kon [18]: 845000 M⁻¹ s⁻¹
Kd [19]: 13.1 nM
koff [19]: 0.0108 s⁻¹
kon [19]: 845000 M⁻¹ s⁻¹

Binder: B5
concentration within EC50-EC80 for proliferation of VEGFR-2-Ba/F3 cells [13]: 0.1 µg/mL
